Laboratory results from patent publication US20190119378A1.
Numbering of substitutions follows the chain as printed.

Legend:
[1] = molecular target: sRAGE antigen (biotin-labeled); assay: ELISA with biotinylated sRAGE
[2] = molecular target: sRAGE antigen (biotin-labeled); assay: ELISA: antibody coated on plate, serial dilution of biotinylated sRAGE, HRP-streptavidin detection, Prism non-linear fit
[3] = molecular target: sRAGE antigen (biotin-labeled); assay: as above; remark: listed apart in the source

B1: original murine anti-RAGE monoclonal antibody (IgG2a isotype with a Kappa light chain) (antibody, V domains shown)
VH: DVQLQESGPGLVKPSQSLSLNCSVTGSSITSGYYWNWIRQFPGNKLEWMGDISYDGSNNYNPSLKNRISITRDTSKNQVFMKLNSVTTEDTAIYKCVREDRSGYPPFANWGQGTLVTVSA
VL: DVQMTQTTSSLSASLGDRVTINCRASQDISNYLNWYQQKPDGTVKLLIYYTSRLHSGVPSRFSGSGSGTDYSLTISNLEQEDIATYFCQQGNTLPWTFGGGTKLEIK
B1 was tested, and the Kd [1] was 0.0626 µM, the Kd [2] was 0.058 µM and the Kd [3] was 0.0884 µM.

B2: mouse-human chimera anti-RAGE antibody (antibody, human IgG1, kappa, V domains shown)
VH: B1 VH with A120S
VL: DIQMTQTTSSLSASLGDRVTINCRASQDISNYLNWYQQKPDGTVKLLIYYTSRLHSGVPSRFSGSGSGTDYSLTISNLEQEDIATYFCQQGNTLPWTFGQGTKVEIKR
B2 showed a Kd [1] of 0.104 µM, a Kd [2] of 0.04 µM and a Kd [3] of 0.0387 µM.

B3: humanized anti-RAGE antibody, full-length IgG1 (antibody, V domains shown)
VH: QVQLQESGPGLVKPSQTLSLTCAVYGGSITSGYYWNWIRQPPGKGLEWIGDISYDGSNNYNPSLKSRVTISRDTSKNQFSLKLSSVTAADTAVYYCVREDRSGYPPFANWGQGTLVTVSS
VL: DIQMTQSPSSLSASVGDRVTITCQASQDISNYLNWYQQKPGKAPKLLIYYTSRLHSGVPSRFSGSGSGTDFTFTISSLQPEDIATYYCQQGNTLPWTFGQGTKV
In the case of B3, the Kd [1] is reported as 0.133 µM and the Kd [3] is reported as 0.0421 µM.
